This test addresses human Fas (human) (UniProt P25445). The test is described as follows: cell-based or functional assay.
Sequence of UniProt P25445 (P25445 26-335): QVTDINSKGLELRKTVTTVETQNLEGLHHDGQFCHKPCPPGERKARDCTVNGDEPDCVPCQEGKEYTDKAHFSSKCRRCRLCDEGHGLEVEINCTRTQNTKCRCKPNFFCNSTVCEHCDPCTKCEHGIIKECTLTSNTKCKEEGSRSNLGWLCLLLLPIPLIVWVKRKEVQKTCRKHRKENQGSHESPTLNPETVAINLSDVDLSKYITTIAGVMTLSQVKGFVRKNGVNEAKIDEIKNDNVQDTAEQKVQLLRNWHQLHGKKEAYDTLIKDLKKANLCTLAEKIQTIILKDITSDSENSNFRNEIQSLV

Take “CH-11 agonist mAb to Fas (Panvera, Madison, WI) (antibody)”: the apoptotic nuclei (DAPI) in MCF7-Fas cells transfected with pMT2 alone, treated 9 h with CH-11 (500 ng/ml) plus cycloheximide was found to be 62%.

Values taken from patent US6881402.
